{
  "source": "paper PMC12754632",
  "about": "“ZapA uses a two‐pronged mechanism to facilitate Z ring formation in Escherichia coli” (mLife, 2025)",
  "key": {"[1]": {"target": "the molecule itself", "test": "sedimentation of polymers; FtsZ variants (5 μM) in Pol buffer with 10 mM CaCl2 and 2.5 mM GTP, room temperature, ultracentrifugation at 100,000 rpm for 15 min at 25°C; polymerization of FtsZ with itself"}, "[2]": {"target": "T1, FtsZ^D212N (Escherichia coli, UniProt P0A9A6 1-383, D212N)", "T1 construct": "also called GTPase mutant (FtsZ^D212N); source: E. coli BL21/pLys, purified (Ni-NTA; His-SUMO tag cleaved with Ulp1); not shown: His-SUMO, N-terminal, cleaved", "T1 sequence (looked up)": "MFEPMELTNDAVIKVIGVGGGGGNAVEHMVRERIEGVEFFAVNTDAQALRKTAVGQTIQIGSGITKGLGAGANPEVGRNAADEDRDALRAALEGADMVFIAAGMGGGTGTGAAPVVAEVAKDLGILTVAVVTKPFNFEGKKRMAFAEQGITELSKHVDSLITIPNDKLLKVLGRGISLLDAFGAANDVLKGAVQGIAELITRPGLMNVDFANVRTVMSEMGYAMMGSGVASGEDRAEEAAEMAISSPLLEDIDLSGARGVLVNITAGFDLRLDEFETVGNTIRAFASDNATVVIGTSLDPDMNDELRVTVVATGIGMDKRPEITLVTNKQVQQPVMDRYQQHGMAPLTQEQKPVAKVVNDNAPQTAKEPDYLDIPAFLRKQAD", "test": "pull-down; H-SUMO-ZapA (6 μM) and FtsZ (2 μM) in Pol buffer (50 mM HEPES-NaOH pH 6.8, 50 mM KCl, 10 mM MgCl2), GTP in the buffers throughout, held on Ni-NTA agarose, washed with 500 mM NaCl and 20 mM imidazole, eluted with 250 mM imidazole; fractions on SDS-PAGE", "settings": "both partners purified"}, "[3]": {"target": "T2, wild-type FtsZ (Escherichia coli, UniProt P0A9A6 1-383)", "T2 construct": "FtsZ, Escherichia coli; Forms filaments with GTP; GTP was present in the pull-down and the sedimentation assays; source: E. coli BL21/pLys, purified (Ni-NTA; His-SUMO tag cleaved with Ulp1); not shown: His-SUMO, N-terminal, cleaved", "T2 sequence (looked up)": "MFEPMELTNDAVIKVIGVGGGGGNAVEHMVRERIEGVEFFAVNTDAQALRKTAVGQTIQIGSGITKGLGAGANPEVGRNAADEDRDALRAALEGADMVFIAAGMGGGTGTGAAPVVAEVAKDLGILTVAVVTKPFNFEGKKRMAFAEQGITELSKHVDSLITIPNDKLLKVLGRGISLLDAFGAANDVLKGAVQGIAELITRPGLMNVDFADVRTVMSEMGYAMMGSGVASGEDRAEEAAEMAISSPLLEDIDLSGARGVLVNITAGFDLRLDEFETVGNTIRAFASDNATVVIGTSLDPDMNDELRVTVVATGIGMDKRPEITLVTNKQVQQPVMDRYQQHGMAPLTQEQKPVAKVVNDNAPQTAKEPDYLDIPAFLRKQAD", "test": "co-sedimentation; FtsZ or variants (5 μM) with or without equal molar untagged ZapA, 2.5 mM GTP, no Ca2+, room temperature 5 min, ultracentrifugation; pellets and supernatants on SDS-PAGE; 50 mM HEPES pH 6.8, 10 mM MgCl2, 200 mM KCl (legend of Figure 4A)", "settings": "both partners purified"}},
  "data": [
    {"binder": "FtsZ^F2A (natural protein, Escherichia coli, UniProt P0A9A6 1-383, looked up, FtsZ, Escherichia coli; source: E. coli BL21/pLys, purified (Ni-NTA; His-SUMO tag cleaved with Ulp1); not shown: His-SUMO, N-terminal, cleaved) MAEPMELTNDAVIKVIGVGGGGGNAVEHMVRERIEGVEFFAVNTDAQALRKTAVGQTIQIGSGITKGLGAGANPEVGRNAADEDRDALRAALEGADMVFIAAGMGGGTGTGAAPVVAEVAKDLGILTVAVVTKPFNFEGKKRMAFAEQGITELSKHVDSLITIPNDKLLKVLGRGISLLDAFGAANDVLKGAVQGIAELITRPGLMNVDFADVRTVMSEMGYAMMGSGVASGEDRAEEAAEMAISSPLLEDIDLSGARGVLVNITAGFDLRLDEFETVGNTIRAFASDNATVVIGTSLDPDMNDELRVTVVATGIGMDKRPEITLVTNKQVQQPVMDRYQQHGMAPLTQEQKPVAKVVNDNAPQTAKEPDYLDIPAFLRKQAD", "values": [
      {"measurement": "binding result", "setting": "[1]", "result": "binds"}
    ]},
    {"binder": "H-SUMO-ZapA (natural protein, Escherichia coli, UniProt P0ADS2 1-109, looked up, ZapA, Escherichia coli; Held on Ni-NTA agarose by the His tag in the pull-down; source: E. coli BL21 (DE3)/pLys, purified (Ni-NTA); not shown: His, N-terminal, kept; SUMO, N-terminal, kept) MSAQPVDIQIFGRSLRVNCPPDQRDALNQAADDLNQRLQDLKERTRVTNTEQLVFIAALNISYELAQEKAKTRDYAASMEQRIRMLQQTIEQALLEQGRITEKTNQNFE", "values": [
      {"measurement": "binding result", "setting": "[2]", "result": "binds"}
    ]},
    {"binder": "untagged ZapA (natural protein, Escherichia coli, UniProt P0ADS2 1-109, looked up, ZapA, Escherichia coli; source: E. coli BL21 (DE3)/pLys, purified (Ni-NTA; His-SUMO tag cleaved with Ulp1); not shown: His-SUMO, N-terminal, cleaved) MSAQPVDIQIFGRSLRVNCPPDQRDALNQAADDLNQRLQDLKERTRVTNTEQLVFIAALNISYELAQEKAKTRDYAASMEQRIRMLQQTIEQALLEQGRITEKTNQNFE", "values": [
      {"measurement": "binding result", "setting": "[3]", "result": "binds"}
    ]}
  ]
}
